First the molecules themselves.
B1: SCARA5 (parent)
chain: VTEDLRLKDWEHSIALRNISLAKG
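Further: lentivirally expressed fusions sorted by FACS into six bins by GFP to DsRed ratio, PSI derived from sequencing read proportions per bin multiplied by bin number.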

The variants in the data set derive from B1. Put plainly: protein stability index of a GFP-peptide fusion (GPS, HEK-293T) (PSI 1-6); higher = more stable. The following applies: c terminus: a fixed tail appended.
VTLDLRLKDWEHSIALRNISLAKG [E3L]: the protein stability index amounted to 1.37. On to VTFDLRLKDWEHSIALRNISLAKG [E3F], for which the protein stability index turned out to be 1.85. With VTPDLRLKDWEHSIALRNISLAKG [E3P], the protein stability index worked out at 3.39. Regarding VTYDLRLKDWEHSIALRNISLAKG [E3Y], the protein stability index turned out to be 2.44. With VTSDLRLKDWEHSIALRNISLAKG [E3S] the figure was 3.16. With VTHDLRLKDWEHSIALRNISLAKG [E3H], the protein stability index came to 3.03.

For VTWDLRLKDWEHSIALRNISLAKG [E3W], the protein stability index turned out to be 1.58. In the case of VTDDLRLKDWEHSIALRNISLAKG [E3D], the protein stability index stood at 3.68. For VTMDLRLKDWEHSIALRNISLAKG [E3M], the protein stability index turned out to be 2.75. Turning to VTGDLRLKDWEHSIALRNISLAKG [E3G], the protein stability index is 2.94. For the variant STEDLRLKDWEHSIALRNISLAKG [V1S], the protein stability index came out at 3.74. For the variant YTEDLRLKDWEHSIALRNISLAKG [V1Y], the protein stability index amounted to 2.83.

Regarding PTEDLRLKDWEHSIALRNISLAKG [V1P], the protein stability index came out at 3.88. Turning to RTEDLRLKDWEHSIALRNISLAKG [V1R], the protein stability index is 3.39.

For the variant QTEDLRLKDWEHSIALRNISLAKG [V1Q], the protein stability index is 4.04. For WTEDLRLKDWEHSIALRNISLAKG [V1W], the protein stability index worked out at 3.42.

NTEDLRLKDWEHSIALRNISLAKG [V1N]: the protein stability index came out at 3.98. Turning to TTEDLRLKDWEHSIALRNISLAKG [V1T], the protein stability index is 3.89.

For the variant VTEDFRLKDWEHSIALRNISLAKG [L5F], the protein stability index was determined as 2.97. Regarding VTEDMRLKDWEHSIALRNISLAKG [L5M], the protein stability index was 3.46. With VTEDPRLKDWEHSIALRNISLAKG [L5P] the figure was 3.77; with VTEDERLKDWEHSIALRNISLAKG [L5E], 4.19; with VTEDGRLKDWEHSIALRNISLAKG [L5G], 3.93. With VTEDTRLKDWEHSIALRNISLAKG [L5T] the figure was 3.68; with VTEDKRLKDWEHSIALRNISLAKG [L5K], 4.14.

On to VTEDYRLKDWEHSIALRNISLAKG [L5Y], for which the protein stability index was 3.34. For VTEDHRLKDWEHSIALRNISLAKG [L5H], the protein stability index was 3.91. As to VTEDIRLKDWEHSIALRNISLAKG [L5I], the protein stability index was 3.63. VTEDWRLKDWEHSIALRNISLAKG [L5W]: the protein stability index amounted to 3.35. Take VTEDQRLKDWEHSIALRNISLAKG [L5Q]: the protein stability index amounted to 3.73. As to VTEDCRLKDWEHSIALRNISLAKG [L5C], the protein stability index came out at 3.34.

As to VTEDSRLKDWEHSIALRNISLAKG [L5S], the protein stability index turned out to be 3.89. Turning to VTEDDRLKDWEHSIALRNISLAKG [L5D], the protein stability index is 4.14. Take VTEDRRLKDWEHSIALRNISLAKG [L5R]: the protein stability index was 3.74. With VTEDVRLKDWEHSIALRNISLAKG [L5V] the figure was 3.65; with VTEDARLKDWEHSIALRNISLAKG [L5A], 3.92; with VTEDNRLKDWEHSIALRNISLAKG [L5N], 3.83. For VTERLRLKDWEHSIALRNISLAKG [D4R], the protein stability index was 3.16. VTEELRLKDWEHSIALRNISLAKG [D4E]: the protein stability index came out at 3.45. With VTEVLRLKDWEHSIALRNISLAKG [D4V], the protein stability index was 2.81. For VTENLRLKDWEHSIALRNISLAKG [D4N], the protein stability index was determined as 3.33. For VTEQLRLKDWEHSIALRNISLAKG [D4Q], the protein stability index was found to be 3.42.

With VTETLRLKDWEHSIALRNISLAKG [D4T], the protein stability index stood at 3.03.

Turning to VTEALRLKDWEHSIALRNISLAKG [D4A], the protein stability index was 2.87. As for VTEILRLKDWEHSIALRNISLAKG [D4I], the protein stability index was 2.35. Turning to VTEPLRLKDWEHSIALRNISLAKG [D4P], the protein stability index came out at 3.41. As for VTEMLRLKDWEHSIALRNISLAKG [D4M], the protein stability index worked out at 2.45. As to VTESLRLKDWEHSIALRNISLAKG [D4S], the protein stability index came to 2.76. Regarding VTEYLRLKDWEHSIALRNISLAKG [D4Y], the protein stability index was found to be 2.01. With VTECLRLKDWEHSIALRNISLAKG [D4C] the figure was 2.53; with VTEWLRLKDWEHSIALRNISLAKG [D4W], 2.05. As to VTELLRLKDWEHSIALRNISLAKG [D4L], the protein stability index stood at 2.26. As to VTEGLRLKDWEHSIALRNISLAKG [D4G], the protein stability index was 3.04. For the variant VTEHLRLKDWEHSIALRNISLAKG [D4H], the protein stability index was 3.43. With VTEKLRLKDWEHSIALRNISLAKG [D4K], the protein stability index came to 2.61. Take VTEFLRLKDWEHSIALRNISLAKG [D4F]: the protein stability index is 2.03. Consider VTEDLRLKYWEHSIALRNISLAKG [D9Y], for which the protein stability index was 2.69. Take VTEDLRLKKWEHSIALRNISLAKG [D9K]: the protein stability index is 2.82. Consider VTEDLRLKLWEHSIALRNISLAKG [D9L], for which the protein stability index was found to be 2.64. Turning to VTEDLRLKNWEHSIALRNISLAKG [D9N], the protein stability index was 3.12.

VTEDLRLKIWEHSIALRNISLAKG [D9I]: the protein stability index was 2.27. Consider VTEDLRLKRWEHSIALRNISLAKG [D9R], for which the protein stability index came to 3.14. Turning to VTEDLRLKPWEHSIALRNISLAKG [D9P], the protein stability index was found to be 3.37. With VTEDLRLKCWEHSIALRNISLAKG [D9C], the protein stability index stood at 3.09.

VTEDLRLKSWEHSIALRNISLAKG [D9S]: the protein stability index is 3.17. Then VTEDLRLKTWEHSIALRNISLAKG [D9T], with 3.18; and VTEDLRLKQWEHSIALRNISLAKG [D9Q], with 3.31; and VTEDLRLKWWEHSIALRNISLAKG [D9W], with 2.22.

Regarding VTEDLRLKVWEHSIALRNISLAKG [D9V], the protein stability index is 3.01. Regarding VTEDLRLKMWEHSIALRNISLAKG [D9M], the protein stability index was 1.96. Take VTEDLRLKGWEHSIALRNISLAKG [D9G]: the protein stability index amounted to 2.29. With VTEDLRLKFWEHSIALRNISLAKG [D9F], the protein stability index worked out at 2.44. VTEDLRLKHWEHSIALRNISLAKG [D9H]: the protein stability index came to 2.71. Regarding VTEDLRLKAWEHSIALRNISLAKG [D9A], the protein stability index was determined as 2.94.

Take VTEDLRLKEWEHSIALRNISLAKG [D9E]: the protein stability index was 3.17. Then VTEDLRTKDWEHSIALRNISLAKG [L7T], with 3.39; and VTEDLREKDWEHSIALRNISLAKG [L7E], with 4.21; and VTEDLRPKDWEHSIALRNISLAKG [L7P], with 3.89.

As for VTEDLRSKDWEHSIALRNISLAKG [L7S], the protein stability index turned out to be 3.84.

With VTEDLRRKDWEHSIALRNISLAKG [L7R], the protein stability index was determined as 2.81. Turning to VTEDLRQKDWEHSIALRNISLAKG [L7Q], the protein stability index came out at 3.63.

For VTEDLRYKDWEHSIALRNISLAKG [L7Y], the protein stability index amounted to 3.2.

For the variant VTEDLRMKDWEHSIALRNISLAKG [L7M], the protein stability index amounted to 3.45. On to VTEDLRKKDWEHSIALRNISLAKG [L7K], for which the protein stability index came to 3.91. Then VTEDLRCKDWEHSIALRNISLAKG [L7C], with 3.39; and VTEDLRFKDWEHSIALRNISLAKG [L7F], with 3.75; and VTEDLRAKDWEHSIALRNISLAKG [L7A], with 3.35. In the case of VTEDLRIKDWEHSIALRNISLAKG [L7I], the protein stability index stood at 3.13. As for VTEDLRNKDWEHSIALRNISLAKG [L7N], the protein stability index was determined as 3.83. VTEDLRHKDWEHSIALRNISLAKG [L7H]: the protein stability index worked out at 3.69. Then VTEDLRGKDWEHSIALRNISLAKG [L7G], with 3.67.

As for VTEDLRVKDWEHSIALRNISLAKG [L7V], the protein stability index was determined as 3.71. Then VTEDLRWKDWEHSIALRNISLAKG [L7W], with 2.98. As for VTEDLRDKDWEHSIALRNISLAKG [L7D], the protein stability index worked out at 3.89.

The values are drawn from the supplement of paper PMC10567573.
